The text below walks through data of publication PMC4288197, “Novel RNA chaperone domain of RNA-binding protein La is regulated by AKT phosphorylation”.

Substitutions are numbered along the chain they refer to.

The target in series [1] is T1, La WT (LARP3) (Homo sapiens, UniProt P05455 1-408).
T1 sequence: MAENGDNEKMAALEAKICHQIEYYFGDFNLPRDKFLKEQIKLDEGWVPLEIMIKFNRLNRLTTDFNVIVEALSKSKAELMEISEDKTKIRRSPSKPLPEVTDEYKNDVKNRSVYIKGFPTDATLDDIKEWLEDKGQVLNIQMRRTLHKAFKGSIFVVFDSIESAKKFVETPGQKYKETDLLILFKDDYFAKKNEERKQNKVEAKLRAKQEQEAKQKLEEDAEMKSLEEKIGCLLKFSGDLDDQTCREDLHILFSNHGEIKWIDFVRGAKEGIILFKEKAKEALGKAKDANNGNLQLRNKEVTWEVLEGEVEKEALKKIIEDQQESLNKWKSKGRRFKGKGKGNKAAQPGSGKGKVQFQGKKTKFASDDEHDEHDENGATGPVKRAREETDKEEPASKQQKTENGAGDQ
The series can be described thus: EMSA; 20 mM Tris/HCl pH 8.0, 150 mM NaCl, 1.5 mM MgCl2, 0.5 mM EDTA, 0.5% NP-40 (FP: IGEPAL CA-630, 100 ug/ml bovine gamma globulin), 10 nM RNA, room temperature. The note with it: protein: recombinant; tags: His; label: 32P (EMSA) or 5'-FAM (FP); hairpin (predicted).

In a further series the target is T2, La-Δlinker (Homo sapiens, UniProt P05455 1-408, del170-230).
T2 sequence: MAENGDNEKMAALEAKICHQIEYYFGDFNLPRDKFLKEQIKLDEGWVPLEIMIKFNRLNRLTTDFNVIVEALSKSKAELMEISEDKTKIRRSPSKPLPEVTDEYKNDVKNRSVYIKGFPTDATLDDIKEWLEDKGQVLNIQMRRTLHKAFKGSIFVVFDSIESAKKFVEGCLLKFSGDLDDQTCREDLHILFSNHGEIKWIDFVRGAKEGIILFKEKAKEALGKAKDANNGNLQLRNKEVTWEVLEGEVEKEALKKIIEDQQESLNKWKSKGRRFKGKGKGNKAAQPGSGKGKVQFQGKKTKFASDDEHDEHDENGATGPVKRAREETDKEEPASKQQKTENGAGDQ
The series is described as above. Particulars: protein: recombinant; tags: His; label: 32P (EMSA) or 5'-FAM (FP); hairpin (predicted).

Series [2] deals with T1, La WT (LARP3). The series can be described thus: fluorescence polarization; 5'-FAM RNA; 20 mM Tris/HCl pH 8.0, 150 mM NaCl, 1.5 mM MgCl2, 0.5 mM EDTA, 0.5% NP-40 (FP: IGEPAL CA-630, 100 ug/ml bovine gamma globulin), 10 nM RNA, room temperature. Particulars: protein: recombinant; tags: His; label: 32P (EMSA) or 5'-FAM (FP); hairpin (predicted).
In another series the target is T3, LaΔ1 (LAM deleted) (Homo sapiens, UniProt P05455 1-408, del11-99).
T3 sequence: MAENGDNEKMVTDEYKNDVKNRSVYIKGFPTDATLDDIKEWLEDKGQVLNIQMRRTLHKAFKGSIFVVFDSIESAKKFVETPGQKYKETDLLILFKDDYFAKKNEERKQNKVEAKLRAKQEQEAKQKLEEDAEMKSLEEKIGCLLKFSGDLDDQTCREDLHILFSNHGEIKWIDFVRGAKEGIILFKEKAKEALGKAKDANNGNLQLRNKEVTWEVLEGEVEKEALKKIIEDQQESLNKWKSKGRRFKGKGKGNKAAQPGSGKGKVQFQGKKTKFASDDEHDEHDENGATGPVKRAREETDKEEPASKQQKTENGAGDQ
The series can be described thus: EMSA; affinity similar to WT; two complexes; 20 mM Tris/HCl pH 8.0, 150 mM NaCl, 1.5 mM MgCl2, 0.5 mM EDTA, 0.5% NP-40 (FP: IGEPAL CA-630, 100 ug/ml bovine gamma globulin), 10 nM RNA, room temperature. The note with it: protein: recombinant; tags: His; label: 32P (EMSA) or 5'-FAM (FP); hairpin (predicted).

In another series the target is T4, LaΔRCD (Homo sapiens, UniProt P05455 1-408, R334G;R335G;F336V;K337G;G338G;K339G;F357V;K360G;K361G;T362T;K363G;F364V).
T4 sequence: T1 sequence with R334G, R335G, F336V, K337G, K339G, F357V, K360G, K361G, K363G, F364V
The series can be described thus: EMSA; similar to WT; two complexes at high La; 20 mM Tris/HCl pH 8.0, 150 mM NaCl, 1.5 mM MgCl2, 0.5 mM EDTA, 0.5% NP-40 (FP: IGEPAL CA-630, 100 ug/ml bovine gamma globulin), 10 nM RNA, room temperature. Particulars: protein: recombinant; tags: His; label: 32P (EMSA) or 5'-FAM (FP); hairpin (predicted).

Series [3] deals with T1, La WT (LARP3). As to the kind of experiment: competition; vs labeled D1-AUG; 20 mM Tris/HCl pH 8.0, 150 mM NaCl, 1.5 mM MgCl2, 0.5 mM EDTA, 0.5% NP-40 (FP: IGEPAL CA-630, 100 ug/ml bovine gamma globulin), 10 nM RNA, room temperature. Particulars: protein: recombinant; tags: His.

In general, Kd refers to the constant that tells how readily two partners part at equilibrium. Regarding GCUGCCCAGGAAGAGCCCCAGCCAUGGAACACCAGCUCCUGUGCUGC (structured_RNA) [D1-AUG], the Kd was 80.3 nM with La WT (LARP3) [1] and 76 nM with La WT (LARP3) [2]. For the same molecule, the results for the binding result in the series with La-Δlinker, with LaΔ1 (LAM deleted) and in the series with LaΔRCD were “no binding”, “binds” and “binds”, respectively.
Take CAGGAAGAGCCCCAGCCAGGGAACACCAGCUCCUG (ssRNA) [D1-mu2]: the binding result in the series with La WT (LARP3) [3] was “binds”.
Same read-out and setting: in the case of CAGGAAGAGCCCCACAGAUGCACCACCAGCUCCUG (ssRNA) [D1-mu3] it was “no binding”.
